We go through 10 molecules from patent publication US12497462.

In experiment [1] the target is Human CD26-Fc fusion protein (human). Nature of the experiment: ELISA screen GH2 (HHJ), table P1-CD26, format CD26/scFv/Etag-HRP.
The target in experiment [2] is ProL/A-HRP. Nature of the experiment: ELISA screen GH2 (HHJ), table P1-PrLA, format PrI/scFv/PrA-HRP.
Experiment [3] concerns the target IgG Control. In words: ELISA screen GH2 (HHJ), table P1-IgG, format IgG/scFv/Etag-HRP.
Experiment [4] addresses ProL/A-HRP. In words: ELISA screen of scFv clones, plate panel 'ProL/A-HRP' (scFv quality check).
The target in experiment [5] is IgG Control. In words: ELISA screen of scFv clones, plate panel 'IgG Control'.
For experiment [6], the target named is Human CD26-Fc fusion protein (human). Nature of the experiment: ELISA screen of scFv clones, plate panel 'CD26' (CD26-Fc fusion protein per paragraph 510).
For experiment [7] the target is unchanged. Nature of the experiment: ELISA screen, Plate2, panel CD26.
The target of experiment [8] is ProL/A-HRP. Nature of the experiment: ELISA screen, Plate2, panel ProL/ProA-HRP.
For experiment [9], the target named is IgG Control. Nature of the experiment: ELISA screen, Plate2, panel IgG.

Human CD26-Fc fusion protein (human), sequence (chain, as listed by the source): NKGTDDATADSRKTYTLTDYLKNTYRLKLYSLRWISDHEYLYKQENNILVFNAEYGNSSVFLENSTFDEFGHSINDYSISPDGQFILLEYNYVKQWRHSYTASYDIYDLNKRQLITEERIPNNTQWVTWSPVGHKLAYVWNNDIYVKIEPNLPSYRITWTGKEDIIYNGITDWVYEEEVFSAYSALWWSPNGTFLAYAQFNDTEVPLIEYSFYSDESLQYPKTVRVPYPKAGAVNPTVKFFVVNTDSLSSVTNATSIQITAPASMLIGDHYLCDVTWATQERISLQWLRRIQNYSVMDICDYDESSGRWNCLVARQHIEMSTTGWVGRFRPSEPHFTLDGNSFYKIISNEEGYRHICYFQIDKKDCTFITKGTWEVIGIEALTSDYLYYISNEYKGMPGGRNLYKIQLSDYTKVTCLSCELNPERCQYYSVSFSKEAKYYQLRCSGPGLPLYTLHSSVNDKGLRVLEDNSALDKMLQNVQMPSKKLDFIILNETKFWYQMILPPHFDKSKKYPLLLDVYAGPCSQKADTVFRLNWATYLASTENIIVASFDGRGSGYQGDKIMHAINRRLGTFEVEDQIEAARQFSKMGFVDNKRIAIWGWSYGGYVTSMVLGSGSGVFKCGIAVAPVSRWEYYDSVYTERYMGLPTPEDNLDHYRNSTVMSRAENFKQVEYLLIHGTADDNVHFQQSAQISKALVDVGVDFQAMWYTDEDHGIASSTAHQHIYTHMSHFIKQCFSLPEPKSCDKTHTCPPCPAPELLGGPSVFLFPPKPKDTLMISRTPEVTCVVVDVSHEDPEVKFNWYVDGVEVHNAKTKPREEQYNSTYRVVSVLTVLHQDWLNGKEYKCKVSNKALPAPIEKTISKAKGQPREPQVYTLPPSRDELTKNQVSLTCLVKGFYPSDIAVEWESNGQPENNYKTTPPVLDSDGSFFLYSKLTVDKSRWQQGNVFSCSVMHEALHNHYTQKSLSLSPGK

B1: CD26-04E scFv (scFv, part only; not given: VL-VH linker and detection tag, V domains shown, not shown: another chain or arm of the molecule; small tags and cut ends)
VL: DIQMTQSPSSLSASVGDRVTITCRASQDVNDGVAWYQQKPGKAPKLLIYWASYLYSGVPSRFSGSGSGTDFTLTISSLQPEDFATYYCQQSWNFPLTFGQGTKVEIK
VH: EVQLVESGGGLVQPGGSLRLSCAASGFTINDGFIHWVRQAPGKGLEWVAGIWPFGGSTSYADSVKGRFTISADTSKNTAYLQMNSLRAEDTAVYYCARFDVVDWGVMDYWGQGTLVTVSS
As to B1, the figures for the ELISA OD450 in [1], in experiment [2] and in experiment [3] were 3.06, 3.08 and 0.05, respectively.

B2: CD26-03G scFv (scFv, part only; not given: VL-VH linker and detection tag, V domains shown, not shown: another chain or arm of the molecule; small tags and cut ends)
VL: DIQMTQSPSSLSASVGDRVTITCRASQDVSSSVAWYQQKPGKAPKLLISYPGWLYSGVPSRFSGSGSGTDFTLTISSLQPEDFATYYCQQFGDFPMTFGQGTKVEIK
VH: EVQLVESGGGLVQPGGSLRLSCAASGFTIGNYGIHWVRQAPGKGLEWVAWIGPYGGYTFYADSVKGRFTISADTSKNTAYLQMNSLRAEDTAVYYCARFNNLLWNGMDYWGQGTLVTVSS
In the case of B2, the ELISA OD450 in experiment [1] came to 3.08; in experiment [2], 3.16; in experiment [3], 0.05.

B3: CD26-04A scFv (scFv, part only; not given: VL-VH linker and detection tag, V domains shown, not shown: another chain or arm of the molecule; small tags and cut ends)
VL: DIQMTQSPSSLSASVGDRVTITCRASQDVSGGVAWYQQKPGKAPKLLIYGTSGLYSGVPSRFSGSGSGTDFTLTISSLQPEDFATYYCQQGGDWPITFGQGTKVEIK
VH: EVQLVESGGGLVQPGGSLRLSCAASGFAINNYSIHWVRQAPGKGLEWVASIWPYGGFTSYADSVKGRFTISADTSKNTAYLQMNSLRAEDTAVYYCARFFSSYGDMDYWGQGTLVTVSS
B3: the ELISA OD450 in [4] is 3.11; in experiment [5], 0.069; in [6], 2.92.

B4: CD26-07H scFv (scFv, part only; not given: VL-VH linker and detection tag, V domains shown, not shown: another chain or arm of the molecule; small tags and cut ends)
VL: DIQMTQSPSSLSASVGDRVTITCKSNQNLLYSHGRTYLNWYQQKPGKAPKLLIFGTSHLYSGVPSRFSGSGSGTDFTLTISSLQPEDFATYYCYQGYHVPFTFGQGTKVEIK
VH: EVQLVESGGGLVQPGGSLRLSCKASGYTFARFGMYWVRQAPGKGLEWVAFIAPNHGYTFYADSVKGRFTISADTSKNTAYLQMNSLRAEDTAVYYCARGHWYHGYMDYWGQGTLVTVSS
For B4, the ELISA OD450 in experiment [7] came out at 2.3; in experiment [8], 2.73; in [9] it was 0.047.

B5: CD26-01D scFv (scFv, part only; not given: VL-VH linker and detection tag, V domains shown, not shown: another chain or arm of the molecule; small tags and cut ends)
VL: DIQMTQSPSSLSASVGDRVTITCRASQDVNSNVAWYQQKPGKAPKLLIFGSGGLYSGVPSRFSGSGSGTDFTLTISSLQPEDFATYYCQQYSSYPLTFGQGTKVETK
VH: EVQLVESGGGLVQPGGSLRLSCAASGFTINDSYIHWVRQAPGKGLEWVAWIWPYGGFTYYADSVKGRFTISADTSKNTAYLQMNSLRAEDTAVYYCARFLGSSSIMDYWGQGTLVTVSS
Consider B5, for which the ELISA OD450 is 3.13 in experiment [4], 0.05 in experiment [5] and 0.948 in experiment [6].

B6: CD26-01F scFv (scFv, part only; not given: VL-VH linker and detection tag, V domains shown, not shown: another chain or arm of the molecule; small tags and cut ends)
VL: DIQMTQSPSSLSASVGDRVTITCRASQDVWGYVAWYQQKPGKAPKLLIFSSRSLYSGVPSRFSGSGSGTDFTLTISSLQPEDFATYYCQQYFNWPITFGQGTKVEIK
VH: EVQLVESGGGLVQPGGSLRLSCAASGFTISDYSIHWVRQAPGKGLEWVASIWPYGGFTSYADSVKGRFTISADTSKNTAYLQMNSLRAEDTAVYYCARFHSSSGDMDYWGQGTLVTVSS
With B6, the figures for the ELISA OD450 in experiment [7], in experiment [8] and in experiment [9] were 1.29, 2.71 and 0.045, respectively.

B7: CD26-03B scFv (scFv, part only; not given: VL-VH linker and detection tag, V domains shown, not shown: another chain or arm of the molecule; small tags and cut ends)
VL: DIQMTQSPSSLSASVGDRVTITCRASQDVYYFVAWYQQKPGKAPKLLISWPTGLYSGVPSRFSGSGSGTDFTLTISSLQPEDFATYYCQQYFSYPITFGQGTKVEIK
VH: EVQLVESGGGLVQPGGSLRLSCAASGFTIGNSYIHWVRQAPGKGLEWVAGIGPYWGFTSYADSVKGRFTISADTSKNTAYLQMNSLRAEDTAVYYCARFNGSSGFMDYWGQGTLVTVSS
As to B7, the results for the ELISA OD450 in experiment [4] and in [5] were 3.14 and 0.045, respectively.

B8: CD26-01G scFv (scFv, part only; not given: VL-VH linker and detection tag, V domains shown, not shown: another chain or arm of the molecule; small tags and cut ends)
VL: DIQMTQSPSSLSASVGDRVTITCRASQDVNNSVAWYQQKPGKAPKLLIFSPTGLYSGVPSRFSGSGSGTDFTLTISSLQPEDFATYYCQQYFDFPLTFGQGTKVEIK
VH: EVQLVESGGGLVQPGGSLRLSCAASGFTIGNYGIHWVRQAPGKGLEWVAWIGPSGGYTFYADSVKGRFTISADTSKNTAYLQMNSLRAEDTAVYYCARFDVHGFHGMDYWGQGTLVTVSS
On to B8, for which the values for the ELISA OD450 in experiment [7], in [8] and in experiment [9] were 2.5, 2.74 and 0.047, respectively.

B9: CD26-12D scFv (scFv, part only; not given: VL-VH linker and detection tag, V domains shown, not shown: another chain or arm of the molecule; small tags and cut ends)
VL: DIQMTQSPSSLSASVGDRVTITCRASQDVYSWVAWYQQKPGKAPKLLIYGPGSLYSGVPSRFSGSGSGTDFTLTISSLQPEDFATYYCQQYYNYPLTFGQGTKVEIK
VH: EVQLVESGGGLVQPGGSLRLSCAASGFTINSSYIHWVRQAPGKGLEWVAGIGPYWGFTSYADSVKGRFTISADTSKNTAYLQMNSLRAEDTAVYYCARFYSSYGFMDYWGQGTLVTVSS
On to B9, for which the ELISA OD450 in experiment [4] stood at 3.05; in experiment [5], 0.051.

B10: CD26-10B scFv (scFv, part only; not given: VL-VH linker and detection tag, V domains shown, not shown: another chain or arm of the molecule; small tags and cut ends)
VL: DIQMTQSPSSLSASVGDRVTITCRASQDVWGYVAWYQQKPGKAPKLLIFASGALYSGVPSRFSGSGSGTDFTLTISSLQPEDFATYYCQQYFNWPITFGQGTKVEIK
VH: EVQLVESGGGLVQPGGSLRLSCAASGFTISDYSIHWVRQAPGKGLEWVASIWPYGGFTSYADSVKGRFTISADTSKNTAYLQMNSLRAEDTAVYYCARFHSSSGDMDYWGQGTLVTVSS
On to B10, for which the ELISA OD450 amounted to 3.03 in experiment [4], 0.046 in experiment [5] and 0.68 in experiment [6].
